The source of these data is the DeepSol protein solubility set.

The data set can be described thus: soluble on expression in E. coli; label from the status in PepcDB or PDB records.
“MNIKLYYVHDPMCSWCWGYKPTIEKLKQQLPGVIQFEYVVGGLAPDTNLPMPPEMQQKLEGIWKQIETQLGTKFNYDFWKLCTPVRSTYQSCRAVIAAGFQDSYEQMLEAIQHAYYLRAMPPHEEATHLQLAKEIGLNVQQFKNDMDGTLLEGVFQDQLSLAKSLGVNSYPSLVLQINDAYFPIEVDYLSTEPTLKLIRERIIENMSAQ”: the “soluble on expression in E. coli” value is recorded as “soluble”.

As to “SLINNLSTHSYWPNRGQLEVQGLTVKYTEAGRAVLNDISFSVDGGQSVGLLGRTGSGKSTLLSALLGLNYTEGEMFIDGVSSSSMPLEAWRKAFGVVPQKVFILTGTFRMNLDPYGRYSDDELWRVAEEVGLKSVIEQFPDKLDFELKDGGSVLSNGHKQLMCLARSILSKARILLLDEPSSYLDPITLQVLRKTLKQSFSGCTVILSEHKVEPLLECDSFLMIEKSSVKSYDSIQKLMNEMSDLKQAISPAD”, the “soluble on expression in E. coli” value is “not soluble”.

As to “DFFRSAIDQAPSFMAVLDGRDHIFRIVNQAYHQLVGRRDLLNRTVREALPELDGQGFFELLDEVFLTGLAFTRLAAPVLLRRGPEIERSFVDFIMCPLRGPDGQVRGVFVEGHDVT”, the “soluble on expression in E. coli” value is given as “not soluble”.

Regarding “MGSDKIHHHHHHMNFDFDLPAKALFRAMPICRENTRFNIDGVLIDPDPNGGAWLVATDGKGMLVQYDPDTKVPEKCVVKVSAAWLTETRFDYDMSLIGDLNDIHWCDTRLEFSKDTMTAMSSDFDIAHCLAEAGPDVFCQIRYNPISFPDWRKALDTSANTSELARPVERQTALDTGYLTDLIGWSRGFQVNPAPAGHARLISFVGEPNTFAVLMPMVADATDPLPPLLERAGRADLIQGPQRAAE”, the “soluble on expression in E. coli” value is “not soluble”.

As to “MKVTQLSSETLDRAHERFEETLAQMTVAEANTMPAPLIKSVTWLMWHTARELDLQISALNHSDPLWLSQHWTEKFALDLPDETEDWHHTPEEAAKVVVAEKQLLSDYLAASVALTKSYLDQIKEEQLSDVIDKNWTPPVTRQVRLVSAIDDAVMHSGQAVYTRRLVIGK”, the “soluble on expression in E. coli” value is given as “soluble”.

As for “MGSDKIHHHHHHMELKDYFPEMQVGPHPLGDKDWMSIKEGDQYVHFPKSCLSEKERLLLEVGLGQCEVLQPLGSPWQRYLLDHQGNPPQLYETSQFIYLNHQQALPDDLVELLQQMIAGLEVILPISATQTAFLCRQAISIKVLRWLEDLLPTLESDFGLALTMFVGNAWYQVAAGTLRECFEEECQLLTAYLRQQSGRKLLTFSGLMLWSLLSHHTFLALTRQFHQFLSPQSDMADVVHALWSEHGNLVQTAQRLYIHRNSLQYKLDKFAQQSGLHLKQLDDLAFAHLFLLKY”, the “soluble on expression in E. coli” value is on record as “not soluble”.

On to “GSHMNQCPEHSQLTTLGVDGKEFPEVHLGQWYFIAGAAPTKEELATFDPVDNIVFNMAAGSAPMQLHLRATIRMKDGLCVPRKWIYHLTEGSTDLRTEGRPDMKTELFSSSCPGGIMLNETGQGYQRFLLYNRSPHPPEKCVEEFKSLTSCLDSKAFLLTPRNQEACELSNN”, for which the “soluble on expression in E. coli” value is listed as “soluble”.

Consider “MGDYDYLIKFLALGDSGVGKTSFLHRYTDNTFTGQFISTVGIDFKEKKVVYKSSRGGFGGRGQRVLLQLWDTAGQERFRSLTTAFFRDAMGFILIFDITNEQSFLNIRDWLSQLKVHAYCEQPDIIICGNKADLENRRQVSTARAKQLADQLGLPYFETSACTSTNVEKSVDCLLDLVMQRIQQSVETSSLPLSECRGVSLDGDPSAASSYCANC”, for which the “soluble on expression in E. coli” value is “not soluble”.

In the case of “MGSDKIHHHHHHMAYADKKLYTDAGFTLERGEHLGIVGQNGAGKSTLIKILTGKVLPIAGRVEWKKKIQIGYLDQYADIPSGMSLIDFLHTAYSDLYDKEKKMTDLYSKYAELVDDKLLERATRFQNELDAADFYSIDNNVEQVITGLGLDSIGRDHIISEMSGGQRAKIILAKLLLEGNDVIILDEPTNYLDVSHIKWLEGYLQNYDGAALIISHDFDFLNNVANVILDVSFNTLTKYRGNFDQAMRQKTEKTEQQLRAYNKQQEVIKKTKTFIQKNKARASTTGRAKSREKMLAHMDIIEPPQTNPKATFKFPYIESQSTDALKAERLVVGYDPKKPVLNPITFSMSSGDKIVFTGFNGAGKSTLIKTLLGILPAISGKSKFSPSAKTNYFDQDLIWDDDKKTPLQIMQAAYPLEEQKQLRQRLGAAGINADNATKQMCLLSGGEQTKVKLALMELTPSNFLILDEPTNHLDEATKNSLKKAIQKFDGSLILVTHERSFYEGWIDKVIDIASMSNMQPGEVEE”, the “soluble on expression in E. coli” value was “not soluble”.

Regarding “MSLDAVKMVKGKVAEIMQNDRLGGLDVLEAEFSKTWEFKNHNVAVYSIQGRRDHMEDRFEVLTDLANKTHPSIFGIFDGHGGETAAEYVKSRLPEALKQHLQDYEKDKENSVLSYQTILEQQILSIDREMLEKLTVSYDEAGTTCLIALLSDKDLTVANVGDSRGVLCDKDGNAIPLSHDHKPYQLKERKRIKRAGGFISFNGSWRVQGILAMSRSLGDYPLKNLNVVIPDPDILTFDLDKLQPEFMILASDGLWDAFSNEEAVRFIKERLDEPHFGAKSIVLQSFYRGCPDNITVMVVKFRNSSKTEEQEGHHHHHH”, the “soluble on expression in E. coli” value was “soluble”.

“MGHHHHHHGGHMSLTVPDFQAFMRPMLEQISSGEPQKIAELYRRLAEFFALTPQDTEELLPSGKQAKYHNRILWAKFHLDRAGVLTTPSRGVVQITPLGREFLSRYPEHIGMRELQTIPAYAEFTRRSRSPAQSPAPAAPPQAECSASVPPAEQIDALYAELTANLAEELLAQVKELSPAQFERLVVEVLVAMGYGGSVRDAGQALGRSGDNGIDGLIKQDPLGLDRIYLQAKRWKNTVHSPEIRTFSGSLTYHKATKGVFITTSGFSDGAKATAGQIGNIILLDGETLAHLMIEYGVGVLTRETYQIRRLDADYFEELEGGS”: the “soluble on expression in E. coli” value is “soluble”.

Consider “MKALTTRQQEVYDLVRDHLAQTGMPPTRAEIAQRLGFRSPNAAEEHLKALARKGVIEIVSGASRGIRLLMEEEEGLPLIGRVAAGEPLLAQQHIEGHYKVDPSLFKPGADFLLRVNGMSMRDIGILDGDLLAVHKTQDVRNGQVVVARIDDEVTVKRLKKQGNIVHLLPENSEFQPIVVDLREQSFTIEGLAVGVIRNGDWI”, for which the “soluble on expression in E. coli” value was “not soluble”.

For “MAVTKSSSLLIVGAGTWGTSTALHLARRGYTNVTVLDPYPVPSAISAGNDVNKVISSGQYSNNKDEIEVNEILAEEAFNGWKNDPLFKPYYHDTGLLMSACSQEGLDRLGVRVRPGEDPNLVELTRPEQFRKLAPEGVLQGDFPGWKGYFARSGAGWAHARNALVAAAREAQRMGVKFVTGTPQGRVVTLIFENNDVKGAVTADGKIWRAERTFLCAGASAGQFLDFKNQLRPTAWTLVHIALKPEERALYKNIPVIFNIERGFFFEPDEERGEIKICDEHPGYTNMVQSADGTMMSIPFEKTQIPKEAETRVRALLKETMPQLADRPFSFARICWCADTANREFLIDRHPQYHSLVLGCGASGRGFKYLPSIGNLIVDAMEGKVPQKIHELIKWNPDIAANRNWRDTLGRFGGPNRVMDFHDVKEWTNVQYRDISKL”, the “soluble on expression in E. coli” value is reported as “soluble”.

Regarding “MSLTDPLRFVLVPKVVHPWFDKVNDGAKAAAEMLTTTTGRKVTVEYRAPQKADVVEQNDIIARSIATRPDGIFVDLLDEKGNRAVLEEAQEQGIPVTVFDSVAPEGMNLTSIGNDFCEQATIASTRLVELMGGKGEVAIMMGVPTAPNHAIRAKCHEQTFAKYPDIKLVATGIDNDSIETAQKQAAAIMQAHPNLKGWVASDAAGPIGIGQAIKEAGKVGKVFEVGLDDLPDLLALIKEGVVDSSSSTKPEMQGYWAVIATWQKAMGMPTPKYIDTGIAVITKESLAKEGHHHHHH”, the “soluble on expression in E. coli” value is “soluble”.

For “MSLTERFVLRNVKRVNGEEVDIVIENNKIAQVTKAGAGEGGKVLDYSGTYVSSGWIDLHVHAFPEFDPYGDEVDEIGVKQGVTTIVDAGSCGADRIADLVKSREQAKTNLFAFLNISRIGLKRIDELSNMEWIDKEKVIEAVEKYKDVIVGLKARMSKSVVCDSGIEPLHIARDLSRETSLPIMVHIGSAPPRIEEVVPLLEKDDVITHYLNGKENNLFDEEGKPLPVLLDAVNRGVHLDVGHGNASFSFKVAEAAKRHGIAFNTISTDIYRKNRMHGPVYSMAHVLSKFLYLGYSLEEVIDAVTKHAAEWLKKPELGRIQEGDIANLTLFTVKDEKITLIDSEGDQRIAERRIDTKGVVINGSFIECEGHHHHHH”, the “soluble on expression in E. coli” value is listed as “soluble”.

Consider “GMEVIESKWYKKDGASSASIDDVEKLLNTTLPKQYKSFLLWSNGGEGKLGDNYIYIWAIEDVIAYNHDYGIQKYLQKEYWAFGMDGDIGYILHLSDNSIYRVDLGDLDITSIKYIAPSFDDFLGKAIYLNFNKLQNVANNNLTT”, for which the “soluble on expression in E. coli” value is given as “soluble”.

On to “MTFFPEIDIQKTKSNAKRKLREYPRWRRIANDVDTQKVTATYSFEPRQSHGVPSKPVERLALNRVSAEQELDAIEQAVSMILEPERRRILYDKYLAPYKKADKVIYTELCMSESFYYDTLDIALLAFAELYREGVLLVEEGVFS”, for which the “soluble on expression in E. coli” value is listed as “not soluble”.

Take “MGSDKIHHHHHHMSSVHAINQSYWFSTQLPHVESRTTRNSSHAYKTHSHAQFSIGAIEHGETLCHYRNETHHLQAGDLIFIDPQQPHSCNPPPGKMRSYHMLYLDTAWCLDQIAVHCNYQADSLRCNRVVLRDPTLFIRYQHLITLLHRGEITSADSLLNAMLTPVWQQYCLPEPALPHQALQTTTRHVRERLLNNLQESPSLETLADELNLRRETIVRQFRHDTGITPMAFLNNARIEYAKSLLKQGTPLVDTSYQSGFCDQSHFHKTFVQYTSATPGQYARSIFDNK”: the “soluble on expression in E. coli” value is listed as “not soluble”.

In the case of “MKYKKLLFDLIDYLDAFESLHDGGSHEPEIKDFADFLSWRCGKKKKQEEEVVSVTRERAAGAKNIARGVSLLHRYSRFYIKKALTESPLQTEDEYTYLVSLMNGESMTKTELNNLNAMEKTSGAEVMRRLLKANLIEQRPDEEDRRSMRVSITPEGRKVLVNLFPNLRLCAETLVSALSDEQLTAFDHLLWLLCECHNEMFTGKHDAELTDLHAETCGLKQSAGGALSKRLYRR”, the “soluble on expression in E. coli” value is “not soluble”.

As to “MGSDKIHHHHHHMKNDKNLLQHFSREEREFVEKIMDMCQQVEDTYSYRLTHFLHPRQDEIVCKIANYYQLQTFSSRDLVSTEHSRVIIAPTYYELDIKHFELTALHLSYARKFHTLSHSQVLGTFLNQLGIKREYLGDILIDDERLIVFIDQKFGQIALQSITKVARVPVKGKEEEWTTVRLPIGQEWRSKDVLVSSMRLDKLISVAFNLSRATANKLIEAGHVKLDYVLTEQTSKLVEIGQLISVRRYGRVRLNEFLGFSKQGKIKLKLDIVKT”, the “soluble on expression in E. coli” value is “not soluble”.

On to “MCAVLGDNSVSYNTMKFWFEKIKKKNYDLDDKPRSGRPRLDIDEDISRALEDDPRSMSREISATLKRPHTTIINHLHESGRVPKFGQLVPHNLSDSQKNLRCDLSLSLLTRKRTTDWVKDITTGDEKWVLYVNHTRKKQWVPVEEHAEPDLKGELHEKKVLLSIWWDSMGVIFRELLPDGATINADLYCIQLEKVVHAHQLHRPRGSKLLLLHDNARPHTALKTRQKLQTLGIEVLPHPPYSPDLAPTDYHLFRSLQNHLAGQKFHDRKAVETWLDDFFASKSQEFYAEGIAQLPLRWQEVIDTNGEYITH”, for which the “soluble on expression in E. coli” value is reported as “not soluble”.
